Numbering of substitutions follows the chain as printed.
B1: XENP35843 (GPC3-A H1.1_L1.16, 1+1 Fab-scFv-Fc bsAb with CD3 High-Int #1 scFv) (bispecific antibody)
chain 1: QVQLVQSGAEVKKPGASVKVSCKASGYTFTDYEMHWVRQAPGQGLEWMGALEPKTGDTAYSQKFQGRVTMTADKSISTAYMELSRLRSDDTAVYYCTRFYSYTYWGQGTLVTVSSASTKGPSVFPLAPSSKSTSGGTAALGCLVKDYFPEPVTVSWNSGALTSGVHTFPAVLQSSGLYSLSSVVTVPSSSLGTQTYICNVNHKPSDTKVDKKVEPKSCDKTHTCPPCPAPPVAGPSVFLFPPKPKDTLMISRTPEVTCVVVDVKHEDPEVKFNWYVDGVEVHNAKTKPREEEYNSTYRVVSVLTVLHQDWLNGKEYKCKVSNKALPAPIEKTISKAKGQPREPQVYTLPPSREEMTKNQVSLTCDVSGFYPSDIAVEWESDGQPENNYKTTPPVLDSDGSFFLYSKLTVDKSRWEQGDVFSCSVMHEALHNHYTQKSLSLSPGK
chain 2: not shown
chain 3: DVVMTQSPLSLPVTLGQPASISCRSSQSLVHSSGNTYLHWYQQRPGQSPRLLIYKVSNRFSGVPDRFSGSGSGTDFTLKISRVEAEDVGVYFCSQSTHVPPTFGSGTKLEIKRTVAAPSVFIFPPSDEQLKSGTASVVCLLNNFYPREAKVQWKVDNALQSGNSQESVTEQDSKDSTYSLSSTLTLSKADYEKHKVYACEVTHQGLSSPVTKSFNRGEC
B2: XENP36941 (GPC3-A H1.1_L1.29, 1+1 Fab-scFv-Fc bsAb with CD3 High-Int #1 scFv) (bispecific antibody)
chain 1: B1 chain 1
chain 2: not shown
chain 3: B1 chain 3 with S33N, K55Q, S96N
B3: XENP36140 (GPC3-A H1.1_L1.31, 1+1 Fab-scFv-Fc bsAb with CD3 High-Int #1 scFv) (bispecific antibody)
chain 1: B1 chain 1
chain 2: not shown
chain 3: B1 chain 3 with S33N, K55Y, S96N

Target: T1, His-tagged human GPC3 antigen (human, UniProt P51654 25-559, limits assumed)
T1 construct: His-tagged antigen captured on HIS1K Octet sensors; also called 人GPC3; human glypican-3
Assay: Octet BLI; His-tagged GPC3 captured on HIS1K sensor, bsAb (1+1 Fab-scFv-Fc) as analyte

T1 sequence (P51654 25-559 limits assumed): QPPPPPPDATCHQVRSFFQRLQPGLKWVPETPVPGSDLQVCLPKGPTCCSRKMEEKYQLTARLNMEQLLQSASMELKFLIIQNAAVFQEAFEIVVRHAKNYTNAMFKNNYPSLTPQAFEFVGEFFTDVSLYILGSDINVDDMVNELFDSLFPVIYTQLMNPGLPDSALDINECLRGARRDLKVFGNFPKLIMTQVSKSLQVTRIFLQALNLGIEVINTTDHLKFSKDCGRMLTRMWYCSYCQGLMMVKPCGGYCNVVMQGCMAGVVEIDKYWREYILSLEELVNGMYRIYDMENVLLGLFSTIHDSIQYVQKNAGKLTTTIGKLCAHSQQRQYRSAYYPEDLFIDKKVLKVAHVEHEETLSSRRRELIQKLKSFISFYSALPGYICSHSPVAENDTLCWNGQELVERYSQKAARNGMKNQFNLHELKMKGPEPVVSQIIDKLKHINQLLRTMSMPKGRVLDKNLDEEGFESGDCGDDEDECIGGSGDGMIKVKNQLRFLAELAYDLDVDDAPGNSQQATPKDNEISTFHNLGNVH

Kd | Binder
100 nM | B1
70 nM | B2
400 nM | B3

Reference: patent CN117377689A (XENCOR INC, dated 2024)
